Measured values taken from US11306137B2, “Antibody binding agents that bind Acinetobactor and uses thereof” (priority 2015, dated 2022).
Entries after “also recorded” stand apart in the source; their conditions may differ.

What was measured:
A. baumannii HUMC1 [1] = assay: Oropharyngeal aspiration pneumonia model, survival; format: in vivo, mice; conditions: for survival: oropharyngeal aspiration of HUMC1
Protocol: To determine if C8 could treat, inhibit and/or prevent A. baumannii induced sepsis, mice were infected i.v. via the tail-vein with 2×10^7 hyper-virulent A. baumannii HUMC1 and were treated once i.v. with either protein-G purified C8 mAb (approximately 10 or 20 μg doses) or an isotype-control antibody in a saline buffer. […] In a second experiment, mice were similarly infected and the C8 MAb was administered once i.v. in saline buffer at a low (5 μg) and very low (0.5 μg) dose.
Male C3HeB/Fe mice (Jackson Labs) between the ages of 7-10 wk were used for all experiments. All animal work was conducted following approval by the Institutional Animal Use and Care Committee at the University of Southern California, in compliance with the recommendations in the Guide for the Care and Use of Laboratory Animals of the National Institutes of Health.
For the bloodstream infection model, mice were infected intravenously via the tail-vein with designated inocula of A. baumannii isolates. An oropharyngeal model of aspiration pneumonia that recapitulates hospital- or ventilator-associated pneumonia (VAP) relevant to ICU populations was used. In brief, mice were sedated with isoflurane, hung by their maxillary incisors, tongues held to prevent swallowing, and 50 μL of bacterial inocula was placed in the trachea to allow inoculation of the organisms into the lungs by reflexive aspiration.

A. baumannii HUMC1 [2] = assay: Immunogold transmission electron microscopy; format: binding; conditions: 40,000× magnification
Protocol: Mid-log-growth A. baumannii cultures were washed twice incubated with primary antibody (200 μg/mL) at room temperature for 30 min, washed three times in PBS, and resuspended in 50 μL PBS. Goat anti-mouse IgG 20 nm Gold Conjugated (TedPella Inc.) was added to each tube at a final concentration of 0.8 μg/mL and incubated at room temperature for 30 min. Bacteria were washed, pelleted, and resuspended in 500 μL of half-strength Karnovsky's Fixative (2% paraformaldehyde and 2.5% gluteraldehyde in 0.1M phosphate buffer) for 2 hours at room temperature. Following incubation, the pellet was dislodged from the bottom of the tube using a bent stick and allowed to sit in fixative overnight. After overnight fixation, fixative was carefully aspirated off and 1 mL of PBS was carefully added to the tube in order to prevent agitation of the pellet. The pellet was then post-fixed in 1% Osmium Tetroxide for 1 hour and stained with 1% Uranyl Acetate overnight. The pellet was then put in 15% BSA for 2 hours and subsequently subjected to another treatment with the half-strength Karnovsky's Fixative to harden. Pellets were washed in water, dehydrated, embedded in Epon, sectioned, and placed on copper grids. Electron Micrographs were taken on a JEOL JEM-2100 Microscope operating at 80 kV.

A. baumannii HUMC1 [3] = assay: Lung and blood bacterial burden and lung histopathology in aspiration pneumonia; conditions: 24 hr post-infection
A. baumannii HUMC1 [4] = assay: Blood bacterial density, plasma cytokines and sepsis biomarkers after i.v. infection
[5] = 22 hr post-infection, relative to controls

B1: C8: mouse IgG1-kappa monoclonal antibody from hybridoma 9.1C8 (ATCC PTA-122177); light chain SEQ ID NO:2, heavy chain SEQ ID NO:3 (antibody, listed as Mus musculus, V domains shown)
VH: EVQLQQSGPELVKPGASVKISCKASGYSFTGYTMNWVKQSHGKSLEWIGRINPYNGDSFYNQKFKGKATLTVDKSSNIAHMEFLSLTSEDSAVYYCGRSGDGPWFAYWGQGTLVTVSA
VL: LPLSLPVSLGDQASISCRSSQSIVHNNGNTYLEWYLQKPGQSPKLLIYKVSNRFSGVPDRFSGSGSGTDFTLKISRVEAEDLGVYYCFQGSHVPLTFGAGTKLEIKGSRS
B1 was tested, and the “survival, delayed treatment” value (A. baumannii HUMC1 [1]; lung model, therapy administered 4 hr post-infection) was “fully protective”, the survival (A. baumannii HUMC1 [1]; 5 μg i.v., FIG. 4 / FIG. 9A) was “nearly fully protective; also recorded: markedly improved survival” and the survival (A. baumannii HUMC1 [1]; 50 μg i.p., FIG. 9B) was “fully protective”. For the same molecule, the “physical binding site on the bacterial surface by electron microscopy” value (A. baumannii HUMC1 [2]) was “bound to the pili on the bacterial surface; also recorded: binding to the pili”, the “reduction of bacterial burden in the blood vs control mice” value (A. baumannii HUMC1 [3]; 50 μg C8, FIG. 9C) was 7 log and the “reduction of bacterial burden in the lungs vs control mice” value (A. baumannii HUMC1 [3]; 50 μg C8, FIG. 9C) was 2 log. The “lung histology (H&E)” value (A. baumannii HUMC1 [3]; FIG. 9D-E) was “appeared normal; also recorded: maintained normal lung architecture”, the “plasma IL-6” value (A. baumannii HUMC1 [4]; 2 hr after infection, FIG. 8B) was “significantly reduced” and the “plasma TNF” value (A. baumannii HUMC1 [4]; 2 hr after infection, FIG. 8B) was “significantly reduced”. For the same molecule, the anion gap (A. baumannii HUMC1 [4]; [5]) was “normal”, the base deficit (A. baumannii HUMC1 [4]; [5]) was “normal” and the blood glucose (A. baumannii HUMC1 [4]; [5]) was “normal”. For the same molecule, the “blood pH” value (A. baumannii HUMC1 [4]; [5]) was “normal”, the serum bicarbonate (A. baumannii HUMC1 [4]; [5]) was “normal” and the “plasma IL-1β” value (A. baumannii HUMC1 [4]; 22 hr post-infection, FIG. 8B) was “virtually undetectable”. The “plasma IL-10” value (A. baumannii HUMC1 [4]; 22 hr post-infection, FIG. 8B) was “virtually undetectable”, the “blood urea nitrogen (BUN) levels” value (A. baumannii HUMC1 [4]; 22 hr post-infection, FIG. 8C) was “baseline” and the “physiology (biomarkers of sepsis)” value (A. baumannii HUMC1 [4]; between 2 and 24 hours, FIG. 8C) was “maintained baseline physiology”. For the same molecule, the “bacterial density in the blood over time” value (A. baumannii HUMC1 [4]; over the next 20 h, 5 μg i.v., FIG. 8A) was “continued to decrease” and the “lower bacterial density in the blood than isotype control” value (A. baumannii HUMC1 [4]; two hours after treatment, 5 μg i.v., FIG. 8A) was 1,000 fold.
